Measurements published in patent US20160376363A1 (ALDER BIOPHARMACEUTICALS, published 2016).

Assays:
human PACAP38 = target: T1, human PACAP38 (human, C-terminal lysine is amidated; N-terminally or C-terminally biotinylated in the HTRF and cell binding assays); experiment: SPR (ProteOn XPR36), antibody amine-coupled to chip, peptide as analyte, 1:1 Langmuir fit
T1 construct: Synthetic peptide (American Peptide; biotinylated forms from AnaSpec); also called PACAP 1-38; wild-type PACAP peptide (1-38)
T1 peptide: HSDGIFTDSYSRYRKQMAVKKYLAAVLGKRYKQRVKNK

human PACAP27 = target: T2, human PACAP27 (human, C-terminal leucine is amidated; 125I-labelled in Example 10); experiment: as above
T2 construct: also called 125I-labelled PACAP27
T2 peptide: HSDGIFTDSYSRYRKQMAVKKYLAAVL

B1: Ab21 (antibody, V domains shown)
VH: QSVEESGGRLVTPGTPLTLTCTVSGIDLSSYYMTWVRQAPGKGLEWVGFIDAGGSAYYATWAKGRFTISKASTTVDLKITSPTTEDTATYFCARDLDLWGPGTLVTVSS
VL: AAVLTQTPSPVSAAVGGTVSISCKSSESVYGDYLAWFQQKPGQPPKQLIYDASTLASGVPSRFKGSGSGTQFTLTISGVQCDDAATYYCAGGYVSAGVAFGGGTEVVVKR
Question: With B1 as the binder, how does the Kd (human PACAP38) read?
Answer: 0.027 nM

Question: What about the koff (human PACAP38) of the same binder?
Answer: 1e-05 s⁻¹

Question: What about the Kd (human PACAP27) of the same binder?
Answer: 0.013 nM

Question: What about the koff (human PACAP27) of the same binder?
Answer: 1e-05 s⁻¹
